Measurements taken from patent US20140315822A1 (INSTITUT PASTEUR, published 2014).

B1: PDZ domain of the human MAST2 protein (other)
chain: MRPPIIIHRAGKKYGFTLRAIRVYMGDSDVYTVHHMVWHVEDGGPASEAGLRQGDLITHVNGEPVHGLVHTEVVELILKSGNKVAISTTPLEN
Kd 453: 238 nM
Kd 455: 130 nM
Kd 443: 400 nM
Kd 439: 210 nM
Kd 461: 126 nM
Kd 460: 188 nM
